Laboratory results: a protein production outcome set (Wang et al. 2014)

Assay: label from the status in PepcDB records

Sequence	protein production
MIILRRLSKEKHHQVNPLWHIYRKIKFVKVLKQTLIIEIARFVPSMKLKNKIYKKLLKMDVGNHTSFAYKVLPDLFYPEYISVGKNTVIGYNTTILTHEVLVDEWRVGKVIIGDYTLIGANTTILPGITIGNHVKIGAGTVVSKDVPDYSFAFGNPMQIQLDSGGDNEWHKKKITSFQ	failed
MIIQIVLWDCYTVPYFCFEKRRFMEELKFEELELCPEILKAVKHMGFEEASPIQSKAIPVIMSGKDVIGQAQTGTGKTAAFGIPLLEKIDPKNKKLQAIVLCPTRELAIQVAEEIRNLAKYMHGIKVLPIYGGQEIVKQIRSLKSGTQLVIGTPGRVMDHMRRKTMKMDHVHTIVLDEADEMLNMGFREDIETILEGIPQEHQTVLFSATMPKAILEITKQFQTNAELVKVTKKELTVPNIEQFYYEVKPKNKEEVLSRLLDIYTPKLSVVFCNTKKQVDLLVNGLLGRGYFAAGLHGDMKQAQRDRVMQGFRSGKTDILVCTDVAARGIDVDDVEAVFNYDLPQDDEYYVHRIGRTGRAGRVGRSFSFVSGREVYKLKEIQRYCKTKIYAQKVPSLNDVANTKMENVLEEIEQIIENEDLTKFLQIIEERVNESDYTAMDLAAAFLKYCSGQQETEEKDMEFGDTGAEEAGMVRLFINIGKKNKAKPGDIVGAIAGESGIPGKLIGTIDMFDKYTFVEVPREYARDVLNAMNHTKIKGKSVAVEPANQK	failed
MIIRIKHYGEVKIEDSKNLLLNLIENRIGIDNICNGKGTCGKCKVRFRQGVPEATSADLRYLSVEELEEGVRLACQVKPQKGMEIDVTLSNSFDRKNTVLEHHHHHH	failed
MIISSLTNPNFKVGLPKVIAEVCDYLNTLDLNALENGRHDINDQIYMNVMEPETAEPSSKKAELHHEYLDVQVLIRGTENIEVGATYPNLSKYEDYNEADDYQLCADIDDKFTVTMKPKMFAVFYPYEPHKPCCVVNGKTEKIKKLVVKVPVKLI	not failed
MIITVASFKGGVGKTTTAVHLSAYLALQGETLLIDGDPNRSATGWGKRGSLPFKVVDERQAAKYAPKYQNIVIDTQARPEDEDLEALADGCDLLVIPSTPDALALDALILTIETLQKLGNNRFRILLTIIPPYPSKDGDEARQLLTTAGLPLFKRGIKRYSAFQKASLNGVVVSEVSDSKAGIAWSDYKATGKEIVEEILILEHHHHHH	not failed
MIIWQPDQKINNGRFIIQGKPLGEGGFGITYKALEPSTGKLYAIKTLNQQMQLLRSDFAEQQIKFINEALTIKGFDHPHILKVHEVIQEGELFGVVMEYIDGVTLFEYVQDKGQLSETEALLYVNQIGQALELIHQKQHLHRDIKPENILLRHTTRKAILIDFGLAREFTIDQTGSMTNAKTEGYAPPEQYERRGRFDAYVDVYALAATLYNLLTGKVPLPVNFRKAGIPLPPPKQFNSQISQRVNDAILKGMELEPQERTPTVLEFRKNLGLVSSGGAEVQLKSSVGMDYRQLRDLLAVGKWKEADAETARVMLAAMKREKEGWLREEDTWFFPCEDLRTIDQLWVKYSNGRFGFSVQKRIYQSLGGKRSYDEEIWRAFGDKVGWRKGGEWLYYKDITFDITAPEAHLPCYTLTIPYTSRGEVGYTDYSPGFGLWWWWGGGLFSRVETCKM	failed
MIIYILINIAIVLLILGFDLYRHRFRQLKFSSILLSVLINSMIDIFAINQFNFITMFTVTLFMIWTLLQIYLNFKLYPFVISDQKFIAIILAIVISLLQFITDKSSTQSVYMSIPYLSPTIFIIGAILLFVGTFKIDEVERLSLFRKIKRPMTTGTIIIILSLISTMILTPFWYVFLIIYSLLIGFILWQGVFFIKDKK	failed
MIKEARLNDYMGDEVWYVPATRNMLNMLGIRTHYIDNNSTGVNIFLKEPLYVGKVVINIYGIKIEKSVREYPKIPELVRKLGINIEYLPFNYTKNESYWENLKLKIWEIAERNGFLEYETYSKFPGVYYVIPVENYERFMKELSNFSDIVVVPGYKYPDEENIHKYLNTEHPFLGKDLIALGMLANDKPLYWRLPGIIEHALIVLIVAFVSYKIARSYLATLISATFVALDPLLFATGIVAMLDIHVAFFVALFMLFLTIRRLRISGISLGLAAATKLSGAFVFPILWAKILKEEDLKEFIISGVVLPVIAFLVPEIPIIKAIGFIPWLEEFMGSFSWHLSFKGEHPAEAPFWLWFISLKPFPFHFNPDVYAVTDPILMISMIAFIFAVPYVSLRRKGLGEIFWMFWSIIGFFALQYILGGKTQFIFYATPLVPPGAVALGVISYEIIKWEYFERSVKIYMNYLRSLKEFIKR	failed
MIKILGHHISTLSITLALYETLIFMCVLYSFIFIMSFFFNIPVPEKLSMVILLALTATIAAGSLGLYNQRLFGDFKEFIWRIALTLPLILLAVLFVSFAYGEITATDQSPFYLAAAFGIPAALLLVVLGRGICFRIPGIKAFRRRILVLGTGEMADRLAALETSQPYRHYEIIGFVALGDDPAPLGEKWRVFDRNCIETRHDLLKICADHNINEVIFAASERRRANSSTFGLPVWDLLECRLMGIHVAEYASFWERETGRIDLDHLRPGWLIFSEGFRNSSRRMIAKRFFDVITALLLVILSLPVLVAAAIAVKLSSPGPVFYRQERVGVNGKPFNLIKFRSMPIDAEKNGPVWGTVKDKRATGVGSLLRRTRIDEIPQVFNVLRGDMSFIGPRPERPVFVEELSRELDFYGERHAVRPGISGWAQINYPYGASVADAKQKLSYDLYYIKNGSLFLDIIILFQTFRVVLWPEGSKEKAGAVVR	failed
MIKKNNLILIKLKNSMKKMIKIAFVAAFVAIAGYGVYTNQKSETLSDLTLANVEALAGGESGGYYCCSPYSYECYRIVGGGIVHGLRLPLPC	failed
MIKLIHNANIVLEDMILENGHLIIEGDTIKKVSNDKIDYAFDFNEIDEIIDAKNLYVIPGIIDIHSDAIEKEIEPRPSTLLPFNMAFYELDKKLPANGITTVYHSISLGDGVGVRSIDNSLKMIKNIDSYKNIDSKSINHKVHLRYEVLYYEGLEKVLELLDENKIDYLSIMDHSPGQGQYTNPTFYKEYATKVWGVTENYVDTWLDDLVNLHDNLDWNKIANIIGIAKTKNINVASHDDDTLEKMDFIKNIGINVSEFPITLEVAKHSKKLGVLTCLGAPNIVRGKSHNNNLKAMDAILEDCCDIVCSDYLPSAMIKSMCIVAERINNLNKAVSLFTSNPAKAVGIYDERGSIKENKKADLVLVDIDSEYPKVVNTIVNGKTVYKREV	failed
MIKLIVSDLDETLVGPDGNVSEENIEAIKKATQKGVKFVPNTGRGFESVQPLLETLGLKGKANEFVISYNGGVIVENQNFDVIQANAFSFEQATQIFDITKQHLENSTHIYTLNDVYVFNEVEEDNEYIRSRGVRTIRFEHDNLDTLKDEPIFKIITMNPDFNKRKQIKAEVLDKVNFDVNATFSSDRYTEFNLKGVDKGQASLELGRHLGIKADEIMALGDNNNDVAMLKSVGLPVVVSNASASAKANAKYIAKGNYETGVAEAINKFVLGE	failed
MIKLLKKINIKSIIELVKKDFKLKLISLSVGIVMWFLVIGGVNPVVTRQFTDVPVSFKNQSVLESRKLIRVSPENPTVTVTITGKRSDVYSVNKSDIVAEVNLQNGITSGAHRLSINYKVPYNVQFKSASDNDLLVTLDEEISKTYKVEVETIGQIKNKNQVVAKKEPADSEVVVKGPVSYVNKVKRVRCVVDVTNKDGDEVVQSKIVPVDELNKEVKKVSLSKTDTNVSIGFKNFKEVPIKLVEINSPPSDVRILKKDIVPNIISIVGNLTSLEQISQINTKPFDLSQIKESGSYNLNLELPSDVTLVNNDLKVVINIDVDKKIEKTLEIDTSNIEIENESGKDILLKGLQDKVKVTVRGYESDLAKLNAEDIRLYISVKKEDVGKNVQIKAKNIENIEIAKISNDIVQAIGK	failed
MIKLLLLDVDGTLTDGSLYFDENFHEIKAFNVKDGLGMTLWQKLGKKIAIITGRTSIMVKKRMESLGVQFVFMGVENKNTVIERLKKDLQLSAQEIACVGDDYNDLGMFKACALSFAPFDAHPLLKSKAYKVLQNSGGKGAVREAIDYLLTLEGLQDEALKLYL	failed
MIKNDGKMMRVRIAKERSDLCDLTAAAIKATYNTRNPCEVERCIDVLNHLKSLSLSVKDIRLSESIVKLETLRSHRNPRIRKEAQALFHSWLKTFYAHGSDNSFTAALTKDRLKMKKHVLKMCSELKKKEEPGTMARQVTAFSVLKNKEDERSQTTVEAVESKTTIKLSELNRKEDQRSLTRETEKNKARNSFLALKQKEDHRSETCVEKYFKKETKTNLKQLNMKTRRVSLEDVTTKKPHEDGSLIKKTKTEKELKKKKVDEMVKLFEAAKKAADVANAKGVLSGKPEVSRCIDALSLLMKINITPKPKEPRRMMDKLEGLTKHKDRKICHVASALLHLWRQRIREQERKKSVTKASSKTRKLSYVKIIWLEQIKVSCGFKRF	failed
MIKNNIKHTWYFGHPQQLVWDYLTKPELLSQWLMESDFQPVAGHTFMFNTKPKVKVGFDGLIYCQVLKVQPDHELEHHHHHH	not failed
MIKQDVICYEKEDVVKRNNINITGGGEKTVLLAHGFGCDQNMWRFMLPELEKQFTVIVFDYVGSGQSDLESFSTKRYSSLEGYAKDVEEILVALDLVNVSIIGHSVSSIIAGIASTHVGDRISDITMICPSPCFMNFPPDYVGGFERDDLEELINLMDKNYIGWANYLAPLVMGASHSSELIGELSGSFCTTDPIVAKTFAKATFFSDYRSLLEDISTPALIFQSAKDSLASPEVGQYMAENIPNSQLELIQAEGHCLHMTDAGLITPLLIHFIQNNQTRA	not failed
MIKTSPPMNKLKLNIALSAFFFALVGCQSMPNDPVDIKADLDASIKETKRLNGPKALTQVPNSVQQELMLNNMDQAKQGMLAEKRLEVSATEVDAKDFFQAIVRGSRYNVVIHPDVTGQISLSLNNVTLSEALTVVEDVYGYEIIRRGNVVKVFPPGIRTETIALNYLFLKRFGSSSTTINSGGVSENDPNSGNSSNGNSSNSNNSNSGSNNNQSGNNGSSNQNSGINLYTENESNFWDELKESLTAFVGTGEGRSVIVSPQAGLVTVRALPQELTAVKKFITATESHLHRQVIIEAKIMEVTLNDDFQQGIKWNKVLDQVGSADIIYSTTGNVVGNVISNTIGGVNSINFSKQTSGSDFSGVIELLQTQGNVQVLSSPRITATNNQKAVIKVGEDEYFVTEVSSTTTTGTSTTTTPEVELTPFFSGIALDVTPQISKDGSVILHVHPSVTITEEQSKTIKIGDTTLVLPLAQSSVRESDTIIRANSGEVVVIGGLIETYNIDIESKTPILGDIPYLGELFKNKSQKSQKRELVIMLKPIVVGQDTWKNQLQDARSLLTKWFPEEVDACELSNDGTLTQECQAQCADAEYATEHGVCQMAAQNAASNDN	failed
MIKVLDQNTINKIAAGEVIEKPSSVIKELVENSIDSGATAITVEVKGSGLSFLRVTDNGSGIKKDEVKLAFLRHATSKLVTVEDLLSISSLGFRGEALASIASVAQVEMITKTADDVTGLRYQIHGGREISSEEIGAPGGTTIIVRNLFYNTPARKKFMKTDLTEISYIYDLMCRICMSHPKISFKFISNGTDKLFTSGNGKLRDIIYHIYGRDITSNLLEINAENDYMKISGYIARPCISRGNRSFEGYYVNHRYIKSAVLTKAIEDAFRTFVMIHKFPFTEINFQVRPDLLDVNVHPTKMELKFANSQDIYSFTYNAIRETLLFKELIPDVAPGKDSKPETYKQRNVGDAPEAFENKRREALVGPVAQAKAAPTHMVTDNSLVKSENAPVLDQRQMKPERASTSESQARPEGTSTALQQPLKPDNIPAPVRPIIDVIDETKDTNTSAEKKSDNNTYEQPQKSGYSYSGRHQEIPGSKVAESKASYMAVDDRKYVQQNMFQEKFLTKEARAKHRLIGQLFKTYWLIEYDGKFFIMDQHAAHEKVKYEELMENYKNKKIYSQYLMPPAVVTLSATEIEFLHENMETFEALGYQIENFGGREFKLNAVPDNLFGLDGRELFIDFIADASSSAKKVTIDVFIHKLSTMACKAAIKGNTEISFKEADALIDQLLKLENPYTCPHGRPTVISMTEAEIEKKFKRIV	failed
